pKd: −log10 of the molar value.
Molecular target: 2196 HC + alphamod1 LC (human)
Assay: SPR; Biacore 8k; antibody captured on a Series S Protein A chip to ~200 RU or greater; 4X serially diluted RBD starting at 1,000 nM flowed at 50 uL/min, 120 s contact, 600 s dissociation; HBS-EP+ buffer; 1:1 Langmuir fitting, steady state analysis, or two-state reaction fitting

2196 HC + alphamod1 LC (human), sequence (heavy, as listed by the source, chain 1 of 2): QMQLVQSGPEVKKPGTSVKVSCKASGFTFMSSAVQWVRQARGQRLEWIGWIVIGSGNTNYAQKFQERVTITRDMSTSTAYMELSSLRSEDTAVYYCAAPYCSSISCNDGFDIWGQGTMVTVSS
2196 HC + alphamod1 LC (human), sequence (light, as listed by the source, chain 2 of 2): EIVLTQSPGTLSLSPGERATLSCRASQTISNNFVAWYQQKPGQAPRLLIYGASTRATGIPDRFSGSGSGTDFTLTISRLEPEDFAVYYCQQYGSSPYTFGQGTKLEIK

**Q.** How did the pKd turn out when “RBD (residues 334–527 of the SARS-CoV-2 spike glycoprotein) (from UniProt P0DTC2 334-527) (domain or fragment)” was run?
**A.** 7.00
